Experimental data reported in article PMC11849073, “Specific recognition mechanism of an antibody to sulfated tyrosine and its potential use in biological research” (The Journal of Biological Chemistry, 2025).
pKd: −log10 of the molar value.

Assays:
[1] = target: BA8 Fab LC S98 A mutant (light chain) (rabbit); assay: ITC; MicroCal PEAQ-ITC; 10 μM BA8 Fab in the cell, 100 μM CCR5 N-terminal peptide in the syringe; PBS; 25 °C (297 K in the table's footnote); one set of sites
[2] = target: BA8 Fab N55 A mutant (heavy chain) (rabbit); assay: as above
BA8 Fab N55 A mutant (heavy chain) (rabbit), sequence (heavy, as listed by the source, chain 1 of 2): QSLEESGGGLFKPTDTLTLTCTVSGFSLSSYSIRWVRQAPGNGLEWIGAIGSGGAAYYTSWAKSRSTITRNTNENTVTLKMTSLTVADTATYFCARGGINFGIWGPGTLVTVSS
BA8 Fab N55 A mutant (heavy chain) (rabbit), sequence (light, as listed by the source, chain 2 of 2): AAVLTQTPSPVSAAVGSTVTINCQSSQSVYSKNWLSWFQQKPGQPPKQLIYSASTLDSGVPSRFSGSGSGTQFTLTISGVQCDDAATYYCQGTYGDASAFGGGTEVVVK

[3] = target: BA8 Fab S30 A mutant (heavy chain) (rabbit); assay: as above
BA8 Fab S30 A mutant (heavy chain) (rabbit), sequence (heavy, as listed by the source, chain 1 of 2): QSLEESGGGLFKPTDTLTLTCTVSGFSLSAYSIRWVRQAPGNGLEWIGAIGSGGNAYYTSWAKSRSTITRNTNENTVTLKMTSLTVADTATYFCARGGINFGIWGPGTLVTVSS

[4] = target: BA8 Fab S32 A mutant (heavy chain) (rabbit); assay: as above
BA8 Fab S32 A mutant (heavy chain) (rabbit), sequence (heavy, as listed by the source, chain 1 of 2): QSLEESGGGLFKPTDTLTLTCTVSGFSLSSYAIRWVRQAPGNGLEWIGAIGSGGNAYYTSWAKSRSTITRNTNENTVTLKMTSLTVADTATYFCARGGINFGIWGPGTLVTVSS

[5] = target: BA8 Fab S52 A mutant (heavy chain) (rabbit); assay: as above
BA8 Fab S52 A mutant (heavy chain) (rabbit), sequence (heavy, as listed by the source, chain 1 of 2): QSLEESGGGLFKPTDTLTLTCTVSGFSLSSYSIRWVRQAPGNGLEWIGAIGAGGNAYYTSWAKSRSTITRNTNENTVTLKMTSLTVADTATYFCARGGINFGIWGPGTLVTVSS

[6] = target: BA8 Fab W46 A mutant (heavy chain) (rabbit); assay: as above
BA8 Fab W46 A mutant (heavy chain) (rabbit), sequence (heavy, as listed by the source, chain 1 of 2): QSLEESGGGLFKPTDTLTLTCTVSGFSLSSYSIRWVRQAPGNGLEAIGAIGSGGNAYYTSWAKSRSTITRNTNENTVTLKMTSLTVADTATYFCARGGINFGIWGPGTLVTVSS

[7] = target: BA8 Fab Y31 A mutant (heavy chain) (rabbit); assay: as above
BA8 Fab Y31 A mutant (heavy chain) (rabbit), sequence (heavy, as listed by the source, chain 1 of 2): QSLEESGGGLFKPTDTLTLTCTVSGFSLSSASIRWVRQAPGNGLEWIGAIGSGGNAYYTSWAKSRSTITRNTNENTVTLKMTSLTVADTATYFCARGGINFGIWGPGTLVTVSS

[8] = target: BA8 Fab Y57 A mutant (heavy chain) (rabbit); assay: as above
BA8 Fab Y57 A mutant (heavy chain) (rabbit), sequence (heavy, as listed by the source, chain 1 of 2): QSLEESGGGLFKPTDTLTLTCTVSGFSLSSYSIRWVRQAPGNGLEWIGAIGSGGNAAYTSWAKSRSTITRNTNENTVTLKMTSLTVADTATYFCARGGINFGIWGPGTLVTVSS

[9] = target: BA8 Fab Y57 F mutant (heavy chain) (rabbit); assay: as above
BA8 Fab Y57 F mutant (heavy chain) (rabbit), sequence (heavy, as listed by the source, chain 1 of 2): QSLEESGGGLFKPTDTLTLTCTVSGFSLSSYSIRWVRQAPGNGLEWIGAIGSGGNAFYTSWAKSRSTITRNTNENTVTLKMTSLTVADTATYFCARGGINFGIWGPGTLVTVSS

[10] = target: BA8 Fab LC S98 A mutant (light chain) (rabbit); assay: SPR; Biacore 8K; each Fab immobilised on a CM5 chip by amine coupling (pH 5.5, about 3000 RU); peptides as analytes, 2 to 162 nM (20 nM to 1620 nM for the R34 A, S52 A and Y57 A mutants of Fig. 3C); PBS with 0.005% Tween 20; 30 μl/min; global fitting
[11] = target: BA8 Fab N55 A mutant (heavy chain) (rabbit); assay: as above
[12] = target: BA8 Fab S30 A mutant (heavy chain) (rabbit); assay: as above
[13] = target: BA8 Fab S32 A mutant (heavy chain) (rabbit); assay: as above
[14] = target: BA8 Fab W46 A mutant (heavy chain) (rabbit); assay: as above
[15] = target: BA8 Fab Y31 A mutant (heavy chain) (rabbit); assay: as above
[16] = target: BA8 Fab Y57 A mutant (heavy chain) (rabbit); assay: as above
[17] = target: BA8 Fab Y57 F mutant (heavy chain) (rabbit); assay: as above

BA8 Fab LC S98 A mutant (light chain) (rabbit), sequence (heavy, as listed by the source, chain 1 of 2): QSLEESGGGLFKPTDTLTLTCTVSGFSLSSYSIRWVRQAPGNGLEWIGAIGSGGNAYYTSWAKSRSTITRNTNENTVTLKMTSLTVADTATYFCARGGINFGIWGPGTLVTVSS
BA8 Fab LC S98 A mutant (light chain) (rabbit), sequence (light, as listed by the source, chain 2 of 2): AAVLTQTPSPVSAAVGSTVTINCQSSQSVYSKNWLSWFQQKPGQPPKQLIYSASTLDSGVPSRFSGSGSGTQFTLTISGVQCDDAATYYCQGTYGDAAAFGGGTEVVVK

## sulfated N-terminal peptide of CCR5 (Pro8 to Ser18 with sulfated Tyr10, Tyr14 and Tyr15)
[1]
  dH: -26.2 kcal/mol
  stoichiometry N: 0.924 sites
[2]
  dH: -27.6 kcal/mol
  stoichiometry N: 0.844 sites
[3]
  dH: -25.8 kcal/mol
  stoichiometry N: 0.892 sites
[4]
  dH: -26 kcal/mol
  stoichiometry N: 0.903 sites
[5]
  pKd: 6.14
  dH: -16.6 kcal/mol
  stoichiometry N: 0.796 sites
[6]
  pKd: 8.21
  dH: -27.2 kcal/mol
  stoichiometry N: 0.824 sites
[7]
  pKd: 8.36
  dH: -22.8 kcal/mol
  stoichiometry N: 0.839 sites
[8]
  pKd: 7.13
  dH: -21.7 kcal/mol
  stoichiometry N: 0.854 sites
[9]
  pKd: 7.98
  dH: -25 kcal/mol
  stoichiometry N: 0.896 sites
[10]
  pKd: 8.62
[11]
  pKd: 8.74
[12]
  pKd: 8.84
[13]
  pKd: 8.71
[14]
  pKd: 7.66
[15]
  pKd: 7.73
[16]
  pKd: 6.35
[17]
  pKd: 8.63
